# PMC3986562
# How the values were obtained:
# F-Actin [1] = biological target: F-Actin (UniProt P68135); assay: co-sedimentation; G-Actin polymerized 2.5 h at 25°C in polymerization buffer (5 mM Tris pH 8.0, 0.2 mM CaCl2, 1 mM ATP, 0.5 mM DTT, 5 mM KCl, 2 mM MgCl2) with equal amounts (0.125 μg/μl) of Simiate or GST; 100,000 g for 1 h; supernatant and pellet by SDS-PAGE
# G-Actin = G-Actin (UniProt P68135)
# F-Actin [2] = biological target: F-Actin (UniProt P68135); assay: co-sedimentation; Actin pre-polymerized, sedimentated and then incubated with Simiate or the control protein; 100,000 g for 1 h; supernatant and pellet by SDS-PAGE
substance,measurement,setting,value
recombinant Simiate (natural protein),percent of the total Simiate content in the sediment,F-Actin [1],51.4%
same,"decrease in amount of Actin polymerized after a period of 3 h (sedimentation assay), against Actin alone",G-Actin,29%
same,percent of the total Simiate content in the sediment,F-Actin [2],50.8%
